Laboratory results reported in publication PMC13403136.

B1: AsCas12a ΨDNA + RNA target (EMSA) (DNA:RNA)
DNA: AGCACCCAGTCCGCCCTGAGTAGATGTGAATCATCTTTAAT
RNA: CUCAGGGCGGACUGGGUGCU
B2: AsCas12a ΨDNA + RNA target (EMSA, FAM ΨDNA) (DNA:RNA)
DNA: B1 DNA
RNA: CUCAGGGCGGACUGGGUGCU

Legend:
AsCas12a [1] = molecular target: T1, AsCas12a (UniProt U2UMQ6 1-1307); assay: BLI
AsCas12a [2] = molecular target: T1, AsCas12a; assay: EMSA

Row | Binder | Kd (AsCas12a [1]) | binding result (AsCas12a [2])
1 | AGCACCCAGTCCGCCCTGAGTAGATGTGAATCATCTTTAAT (ssDNA) [AsCas12a GFP ΨDNA w/ biotin] | 24.5 nM | 
2 | B1 |  | binds
3 | B2 |  | binds
